Reference: article PMC4760375, “A dual phosphorylation switch controls 14-3-3-dependent cell surface expression of TASK-1” (Journal of Cell Science, 2016)
Non-standard residues stand in square brackets, D forms with d. No end group written: not given here. pS = N[C@@H](COP(=O)(O)O)C(=O)O

T1: GST-tagged TASK-3 C-terminal 15 residues fusion protein, phosphorylated with PKA catalytic subunit (human, UniProt Q9NPC2 360-374)
T1 chain: {GST}-SFTDHQRLMKRRK[pS]V

T2: 14-3-3ε (human, UniProt P62258 1-255)
T2 chain: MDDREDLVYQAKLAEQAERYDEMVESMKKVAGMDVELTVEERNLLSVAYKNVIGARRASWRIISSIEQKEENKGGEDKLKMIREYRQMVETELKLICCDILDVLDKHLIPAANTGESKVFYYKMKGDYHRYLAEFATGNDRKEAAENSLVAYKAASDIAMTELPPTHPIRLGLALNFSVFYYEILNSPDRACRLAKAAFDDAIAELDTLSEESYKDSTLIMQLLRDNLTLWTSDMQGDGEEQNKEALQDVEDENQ

T3: 14-3-3β (human, UniProt P31946 1-246)
T3 chain: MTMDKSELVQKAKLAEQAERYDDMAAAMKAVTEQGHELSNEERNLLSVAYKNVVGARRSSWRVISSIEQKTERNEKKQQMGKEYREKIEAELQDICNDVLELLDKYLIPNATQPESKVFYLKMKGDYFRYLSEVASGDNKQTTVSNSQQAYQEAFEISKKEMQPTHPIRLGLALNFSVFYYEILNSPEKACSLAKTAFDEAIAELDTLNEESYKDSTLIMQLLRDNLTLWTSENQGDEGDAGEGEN

T4: 14-3-3τ (human, UniProt P27348 1-245)
T4 chain: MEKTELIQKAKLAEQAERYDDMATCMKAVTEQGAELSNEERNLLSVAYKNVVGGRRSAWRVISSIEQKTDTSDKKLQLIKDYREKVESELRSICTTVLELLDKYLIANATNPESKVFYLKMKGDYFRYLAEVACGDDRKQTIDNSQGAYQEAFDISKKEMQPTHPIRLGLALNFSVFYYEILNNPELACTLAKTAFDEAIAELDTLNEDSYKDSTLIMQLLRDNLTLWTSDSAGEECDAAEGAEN

T5: 14-3-3η (human, UniProt Q04917 1-246)
T5 chain: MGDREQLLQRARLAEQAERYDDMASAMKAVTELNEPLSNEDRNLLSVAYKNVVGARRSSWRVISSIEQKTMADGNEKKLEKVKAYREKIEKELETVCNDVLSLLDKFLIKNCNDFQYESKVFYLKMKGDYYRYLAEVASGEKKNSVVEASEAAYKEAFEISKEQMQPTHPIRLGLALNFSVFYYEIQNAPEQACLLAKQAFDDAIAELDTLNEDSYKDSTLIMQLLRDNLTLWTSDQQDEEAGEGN

T6: 14-3-3γ (human, UniProt P61981 1-247)
T6 chain: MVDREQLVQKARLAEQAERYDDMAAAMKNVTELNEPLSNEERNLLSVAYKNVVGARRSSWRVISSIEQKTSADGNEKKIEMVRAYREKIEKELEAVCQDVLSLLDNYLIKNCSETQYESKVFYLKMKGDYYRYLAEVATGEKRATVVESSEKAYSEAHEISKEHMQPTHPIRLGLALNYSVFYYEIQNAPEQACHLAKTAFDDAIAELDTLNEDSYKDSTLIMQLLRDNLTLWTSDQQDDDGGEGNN

T7: 14-3-3ζ (human, UniProt P63104 1-245)
T7 chain: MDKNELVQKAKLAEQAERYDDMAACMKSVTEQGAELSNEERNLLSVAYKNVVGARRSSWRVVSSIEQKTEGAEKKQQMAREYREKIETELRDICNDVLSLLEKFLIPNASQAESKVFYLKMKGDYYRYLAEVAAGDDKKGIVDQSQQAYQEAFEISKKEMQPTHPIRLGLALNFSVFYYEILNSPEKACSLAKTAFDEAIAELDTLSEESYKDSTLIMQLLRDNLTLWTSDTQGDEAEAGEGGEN

T8: 14-3-3ζ (human, UniProt P63104 1-245)
T8 construct: 14-3-3 protein zeta, human; open reading frame inserted into pMAL2Cx; also called 14-3-3 zeta
T8 sequence (looked up): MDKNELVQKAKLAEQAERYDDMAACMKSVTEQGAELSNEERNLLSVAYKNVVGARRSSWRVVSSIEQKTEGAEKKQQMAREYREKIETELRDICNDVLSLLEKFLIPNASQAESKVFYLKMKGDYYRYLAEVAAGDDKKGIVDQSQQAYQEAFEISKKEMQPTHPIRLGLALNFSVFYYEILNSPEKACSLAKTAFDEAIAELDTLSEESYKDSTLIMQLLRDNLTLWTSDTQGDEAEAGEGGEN

T9: 14-3-3γ (human, UniProt P61981 1-247)
T9 construct: 14-3-3 protein gamma, human; open reading frame inserted into pMAL2Cx; also called 14-3-3 gamma
T9 sequence (looked up): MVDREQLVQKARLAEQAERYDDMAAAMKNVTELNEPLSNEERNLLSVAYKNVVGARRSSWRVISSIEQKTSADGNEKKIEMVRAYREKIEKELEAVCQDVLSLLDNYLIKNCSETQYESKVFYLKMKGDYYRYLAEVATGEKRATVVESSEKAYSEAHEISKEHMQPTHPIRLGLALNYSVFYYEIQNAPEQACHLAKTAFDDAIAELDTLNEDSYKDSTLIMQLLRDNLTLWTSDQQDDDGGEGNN

T10: 14-3-3τ (human, UniProt P27348 1-245)
T10 construct: 14-3-3 protein tau (theta), human; open reading frame inserted into pMAL2Cx; also called 14-3-3 tau
T10 sequence (looked up): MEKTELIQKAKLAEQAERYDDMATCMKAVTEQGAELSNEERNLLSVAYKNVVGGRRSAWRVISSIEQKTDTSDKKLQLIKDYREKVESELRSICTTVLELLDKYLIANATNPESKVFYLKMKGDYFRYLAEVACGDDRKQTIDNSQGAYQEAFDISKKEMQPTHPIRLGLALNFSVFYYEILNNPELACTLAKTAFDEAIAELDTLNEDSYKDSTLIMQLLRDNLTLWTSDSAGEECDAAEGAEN

T11: 14-3-3η (human, UniProt Q04917 1-246)
T11 construct: 14-3-3 protein eta, human; open reading frame inserted into pMAL2Cx; also called 14-3-3 eta
T11 sequence (looked up): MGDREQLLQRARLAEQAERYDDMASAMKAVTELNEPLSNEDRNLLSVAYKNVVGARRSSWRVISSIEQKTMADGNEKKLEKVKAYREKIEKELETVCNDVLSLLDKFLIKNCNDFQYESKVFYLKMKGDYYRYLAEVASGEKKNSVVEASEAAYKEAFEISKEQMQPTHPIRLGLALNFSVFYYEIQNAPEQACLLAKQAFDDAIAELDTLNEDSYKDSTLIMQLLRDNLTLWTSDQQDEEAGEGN

B1: TASK-3 pS373 ΔV374 C-terminal fluorescent peptide (peptide, UniProt Q9NPC2 360-374, looked up)
peptide: SFTDHQRLMKRRK[pS]
modifications: also: fluorescein label, position not given here
notes: TASK-3 (KCNK9), human, C-terminal peptide with phosphorylated S373 but lacking the C-terminal valine V374; ends at pS373; source: synthetic peptide, bought: Peps4Life Sciences

Tests used:
[1] = biological target: TASK-1 pS392 C-terminal fluorescent peptide (human) (UniProt O14649); test: fluorescence polarisation; 10 nM fluorescein-labelled peptide titrated with 14-3-3 protein (1 nM to 120 µM in the results, 100 µM to 1 nM in the methods); 20 mM MOPS, 150 mM NaCl, 0.005% (v/v) CHAPS pH 7.0; room temperature; monophasic fit
[2] = biological target: B1; test: as above; settings: both partners purified
[3] = biological target: T1, GST-tagged TASK-3 C-terminal 15 …; test: SPR
[4] = biological target: T2, 14-3-3ε; test: FP
[5] = biological target: T3, 14-3-3β; test: FP
[6] = biological target: T4, 14-3-3τ; test: FP
[7] = biological target: T5, 14-3-3η; test: FP
[8] = biological target: T6, 14-3-3γ; test: FP
[9] = biological target: T7, 14-3-3ζ; test: FP
[10] = biological target: T8, 14-3-3ζ; test: fluorescence polarisation; 10 nM fluorescein-labelled peptide titrated with 14-3-3 protein (1 nM to 120 µM in the results, 100 µM to 1 nM in the methods); 20 mM MOPS, 150 mM NaCl, 0.005% (v/v) CHAPS pH 7.0; room temperature; monophasic fit; settings: both partners purified
[11] = biological target: T9, 14-3-3γ; test: as above; settings: both partners purified
[12] = biological target: T10, 14-3-3τ; test: as above; settings: both partners purified
[13] = biological target: T11, 14-3-3η; test: as above; settings: both partners purified
[14] = biological target: TASK-1 pS393 C-terminal fluorescent peptide (last 15 amino acids) (human) (UniProt O14649); test: as above

| Binder | Kd [1] | fold reduction of affinity against the TASK-3 pS373 peptide with V374 [2] | Kd [3] | Kd [4] | Kd [5] | Kd [6] | Kd [7] | Kd [8] | Kd [9] | binding result [10] | binding result [11] | binding result [12] | binding result [13] | Kd [14] |
| --- | --- | --- | --- | --- | --- | --- | --- | --- | --- | --- | --- | --- | --- | --- |
| 14-3-3ε (natural protein, human, UniProt P62258 1-255, looked up, 14-3-3 protein epsilon, human; open reading frame inserted into pMAL2Cx; also called 14-3-3 epsilon) MDDREDLVYQAKLAEQAERYDEMVESMKKVAGMDVELTVEERNLLSVAYKNVIGARRASWRIISSIEQKEENKGGEDKLKMIREYRQMVETELKLICCDILDVLDKHLIPAANTGESKVFYYKMKGDYHRYLAEFATGNDRKEAAENSLVAYKAASDIAMTELPPTHPIRLGLALNFSVFYYEILNSPDRACRLAKAAFDDAIAELDTLSEESYKDSTLIMQLLRDNLTLWTSDMQGDGEEQNKEALQDVEDENQ | 100000 nM | 23 fold | 150 nM |  |  |  |  |  |  |  |  |  |  |  |
| B1 |  |  |  | 18000 nM | 1200 nM | 2400 nM | 1600 nM | 1100 nM | 3300 nM | binds | binds | binds | binds |  |
| 14-3-3β (natural protein, human, UniProt P31946 1-246, looked up, 14-3-3 protein beta, human; open reading frame inserted into pMAL2Cx; also called 14-3-3 beta) MTMDKSELVQKAKLAEQAERYDDMAAAMKAVTEQGHELSNEERNLLSVAYKNVVGARRSSWRVISSIEQKTERNEKKQQMGKEYREKIEAELQDICNDVLELLDKYLIPNATQPESKVFYLKMKGDYFRYLSEVASGDNKQTTVSNSQQAYQEAFEISKKEMQPTHPIRLGLALNFSVFYYEILNSPEKACSLAKTAFDEAIAELDTLNEESYKDSTLIMQLLRDNLTLWTSENQGDEGDAGEGEN | 100000 nM | 3 fold | 181 nM |  |  |  |  |  |  |  |  |  |  | 7500 nM |
| SFTDHQRLMKRRK[pS]V (also: fluorescein label, position not given here) [TASK-3 pS373 C-terminal fluorescent peptide (last 15 amino acids)] |  |  |  | 800 nM | 370 nM | 220 nM |  | 150 nM | 1000 nM |  |  |  |  |  |
